In one assay the test system is mammary gland. Nature of the assay: Mammary branching after injection of LEFTY1- or BMP7-secreting L1 fibroblasts into mammary fat-pad. It counts as in vivo, mouse. The settings on record: secreted ligand from transplanted fibroblasts; whole mount staining. On the procedure:
FIGS. 2A-2F. Effect of LEFTY1 and BMP7 in mammary glands. […] Ducts and terminal end buds (TEB) were analyzed for BMP7 positive cells. SMA and DAPI were used to identify basal cells and for nuclear counterstain, respectively (Magnification 200×). […] Ducts and terminal end buds (TEB) were analyzed for LEFTY1 positive cells. SMA and DAPI were used to identify basal cells and for nuclear counterstain, respectively (Magnification 200×). […] Four to seven images per mouse were analyzed for quantification. […] Four to seven images per mice were analyzed for quantification. […] Data are represented as median±S.E.M. Statistical analysis, Student's T-test, *p<0.05; ***p<0.001.
FIGS. 3A-3C. Effects of LEFTY1 and BMP7 on the morphology of the mouse mammary gland. […] Four to seven images per mouse were analyzed for quantification. […] Four to seven images per mouse were analyzed for quantification. Data are represented as median±S.E.M. Statistical analysis, Student's T-test, *p<0.05; **p<0.01; ****p<0.0001.
We first developed a system where transplantation of engineered non-autologous mammary fibroblast cells secreted particular ligands (FIG. 2C). […] These opposing results were unexpected, since both LEFTY1 and BMP7 have been described to have similar suppressive roles on NODAL/SMAD2/3 signaling (Chen et al., Current biology: CB 14, 618-624 (2004) and Yeo et al., Molecular cell 7, 949-957 (2001)).

The test system of a further assay is mammary epithelial cells. Nature of the assay: 3D organotypic mammary organoid formation. As to conditions: Wnt-dependent organoid culture. It counts as cell-based, mouse. Here is the method:
FIGS. 8A-8D. Autocrine and paracrine effects of NODAL and LEFTY1 in mammary epithelial cell populations. […] The sorted cells were grown in the 3D organotypic assays to test their organoid formation potential in the presence of NODAL. […] Each dot represents an organoid (n=3). […] Data are represented as median±S.D. Statistical analysis, One-way ANOVA with Dunnet's adjustment, **p<0.01.
FIGS. 9A-9F. Opposing effects of LEFTY1 and BMP7 in mammary organoid formation. […] Data are represented as median±S.D. Statistical analysis, one-way ANOVA with Dunnet's adjustment, *p<0.05; **p<0.01; ***p<0.001.
Since LEFTY1 and BMP7 were able to affect the branching of mammary glands, we hypothesized that the LEFTY1/BMP7 signaling axis may affect the proliferation of mammary epithelial cells. We exposed freshly dissociated mammary epithelial cells to NODAL, LEFTY1, BMP7 and CRIPTO-1 in a modified Wnt-dependent in vitro organoid culture system that was optimized for progenitor cell propagation (Zeng & Nusse, Cell Stem Cell 6, 568-577 (2010) and Jamieson et al., Development 144, 1065-1071 (2017)). In Xenopus, Wnt signaling controls the expression of Nodal and Cripto-1 during gastrulation. Consistent with the evolutionary conservation of the interaction between the Nodal and Wnt pathways (Branford et al., Curr Biol 12, 2136-2141 (2002)), NODAL had no effect on organoid formation in our Wnt-driven culture system (FIG. 8A).
In organoid cultures, the basal cells give rise to mixed phenotype colonies of luminal and basal cells. To prevent the formation of LEFTY1-expressing cells during organoid formation, genetic knockdown of LEFTY1 was done. To knock-down mouse LEFTY1, pSICO-R lentiviral vector was used (Ventura, PNAS, 2004). Different shRNAs were designed and cloned into pSICO-R. The target sequences of the shRNAs cloned were GGACAAGGCTGATGTGGAA (SEQ ID NO: 14) and GCAGGTTCCTGGTGTCAGA (SEQ ID NO: 15). The efficiency of knock-down was tested by transfecting HEK293T cells with pSICO-R-shLEFTY1 constructs with pEGFP-C3-LEFTY1 at 1:4 and 1:20 ratio. Decrease on GFP signal was used to calculate the percentage of inhibition of the shLEFTY sequences. […] (p<0.001 and p<0.01, respectively) (FIGS. 8C-8D and FIGS. 9E-9F).

A further assay has as its system pSMAD5. The assay can be described thus: pSMAD5 immunofluorescence in MDA-MB-231. It counts as cell-based. As to conditions: 50 ng/mL BMP7 30 minutes, absence or presence of LEFTY 200 ng/mL. Here is the method: FIGS. 20 and 21 are data from an experiment in which the breast cancer cell line MDA-MB-231 was plated and serum starved for 24 hours. 50 ng/mL BMP7 was added for 30 minutes to activate pSMAD5, either in the absence or presence of exogenous LEFTY (200 ng/mL). LEFTY-BMPR2 interaction, BMP7-BMPR2 interaction (as visualized by Proximity Ligation Assay, red), pSMAD5 status (As visualized by Immunofluorescence, green) were monitored and captured.
Breast cancer cell line MDA-MB-231 was plated and serum starved for 24 hours. 50 ng/mL BMP7 was added for 30 minutes to activate pSMAD5, either in the absence or presence of exogenous LEFTY (200 ng/mL) and LEFTY Antagonist (sc7408p) increasing in dose from 1x to 256x (x=25 ng/mL). LEFTY-BMPR2 interaction, BMP7-BMPR2 interaction (as visualized by Proximity Ligation Assay, red), pSMAD5 status (As visualized by Immunofluorescence, green) were monitored and captured.

Experimental findings from patent US12012599B2, “Compositions and methods for modulating left-right differentiation factor (LEFTY) and bone morphogenic factor (BMP)” (CZ Biohub SF LLC, priority 2018, dated 2024) are described below.

B1: BMP7: bone morphogenetic protein 7, BMPR2 ligand (protein)
chain: STGSKQRSQNRSKTPKNQEALRMANVAENSSSDQRQACKKHELYVSFRDLGWQDWIIAPEGYAAYYCEGECAFPLNSYMNATNHAIVQTLVHFINPETVPKPCCAPTQLNAISVLYFDDSSNVILKKYRNMVVRACGCH
With B1, in the assay on mammary gland, the “extent and number of mammary tree branches” value is “decreased”. Further, in the assay with mammary epithelial cells, the “organoid formation (frequency, number of colonies)” value is “significantly decreased” and the organoid size entry is reported as “significantly decreased”. Besides, the pSMAD5 status result with pSMAD5 was “activates pSMAD5”.

B2: LEFTY1: left-right determination factor 1, secreted TGF-β superfamily protein; generic LEFTY may mean LEFTY1 or LEFTY2 (protein, UniProt O75610 77-366, looked up)
Left-right determination …: RFSQSFREVAGRFLALEASTHLLVFGMEQRLPPNSELVQAVLRLFQEPVPKAALHRHGRLSPRSARARVTVEWLRVRDDGSNRTSLIDSRLVSVHESGWKAFDVTEAVNFWQQLSRPRQPLLLQVSVQREHLGPLASGAHKLVRFASQGAPAGLGEPQLELHTLDLGDYGAQGDCDPEAPMTEGTRCCRQEMYIDLQGMKWAENWVLEPPGFLAYECVGTCRQPPEALAFKWPFLGPRQCIASETDSLPMIVSIKEGGRTRPQVVSLPNMRVQKCSCASDGALVPRRLQP
For the molecule B2, the “extent and number of mammary tree branches” value in the assay on mammary gland is reported as “significant localized increase”. In the assay on mammary epithelial cells, the “organoid formation (frequency, number of colonies)” value is recorded as “increased the number of colonies”. Besides, the pSMAD5 status result with pSMAD5 is reported as “reduces”.
